Results taken from US9803012B2, “Compositions and methods for regulating SAS1R” (UNIVERSITY OF VIRGINIA PATENT FOUNDATION, priority 2005, dated 2017).

What was measured:
Type in all cases: cell-based
mouse eggs [1] = experiment: Binding of SLLP2 to mouse eggs
Procedure: To analyze the biologic activity of human SLLP2, it was determined whether it would bind to an egg, in this case, a mouse egg.
(§1) For comparison to the use of human sperm SLLP2, an experiment was performed to determine if purified mouse SLLP2 would bind to Zona intact mouse eggs. […] Competitive assays were then performed to determine whether the addition of recombinant mouse SLLP2 to a mixture of mouse sperm and mouse eggs could inhibit binding of sperm and eggs. Various amounts of recombinant mouse SLLP2 were added (5, 25, 50, 100, and 200 μg/ml) and the number of sperm bound per egg was determined.

[2] = tested on: mouse sperm and mouse eggs; experiment: Competitive assay of sperm-egg binding with recombinant mouse SLLP2; conditions: 5, 25, 50, 100 and 200 μg/ml, relative to BSA (200 μg/ml) or PBS controls
Procedure: as §1

mouse sperm-egg fusion = experiment: Mouse sperm-egg fusion with recombinant mouse SLLP2; conditions: 100 or 200 μg/ml, relative to BSA and PBS controls
Procedure: Next, it was determined whether recombinant mouse SLLP2 could inhibit mouse sperm-egg fusion. In groups treated with recombinant mouse SLLP2 the number of sperm fused per egg was reduced to about 0.1 sperm fused per egg, at concentrations of 100 or 200 μg/ml recombinant mouse SLLP2, relative to BSA and PBS control treatments.

mouse eggs [3] = experiment: Fertilization of mouse eggs with mouse sperm with recombinant mouse SLLP2
Procedure: Recombinant mouse SLLP2 at concentrations of 25, 50, 100, and 200 μg/ml was incubated with sperm and egg, and compared to BSA and PBS controls as described above. It can be seen that fertilization occurred at a rate of about 75% in the BSA and PBS controls groups. […] Also provided are comparisons of human SLLP2 to other mammalian sequences, and well as a comparison indicating the conservation of SLLP2 ortholog in dogs.

binding to Zona-free mouse eggs (mouse eggs [1]; mouse SLLP2): would bind to Zona-free mouse eggs
binding to Zona intact mouse eggs (mouse eggs [1]; purified mouse SLLP2): does indeed bind to mouse eggs
B1: recombinant mouse SLLP2: purified recombinant mouse sperm lysozyme-like protein 2 (mature protein SEQ ID NO:16) (protein, listed as Mus musculus)
chain: KIYERCELAKKLEEAGLDGFKGYTVGDWLCVAHYESGFDTSFVDHNPDGSSEYGIFQLNSAWWCNNGITPTQNLCNIDCNDLLNRHILDDIICAKRVASSHKSMKAWDSWTQHCAGHDLSEWLKGCSVRLKTDSSYNNW
number of sperm bound per egg [2]: able to reduce the amount of binding occurring between sperm and egg
number of sperm fused per egg (mouse sperm-egg fusion): about 0.1 sperm fused per egg
inhibition of fertilization (mouse eggs [3]; 200 μg/ml): nearly totally inhibiting fertilization
inhibition of fertilization (mouse eggs [3]; 25, 50, 100 and 200 μg/ml, vs BSA and PBS controls): inhibited fertilization in a dose-dependent fashion
